4 substances from patent US20090298769A1 can be followed below.

Assay [1] has as its target DiYF β3 integrin (αvβ3 with β3 Tyr747Phe and Tyr759Phe) on lung endothelial cells of knock-in mice (mouse) (UniProt P43406). The assay can be described thus: flow cytometry, FITC-fibrinogen on DiYF mouse lung EC.
Assay [2] concerns the target αvβ3 integrin, wild type, on mouse lung endothelial cells (mouse) (UniProt P43406). Nature of the assay: flow cytometry, FITC-fibrinogen on WT mouse lung EC.
Assay [3] deals with VEGFR-2 of mouse lung endothelial cells (mouse) (UniProt P35918). Nature of the assay: cell-based or functional assay.
Chain of VEGFR-2 of mouse lung endothelial cells (mouse) (P35918 20-1345): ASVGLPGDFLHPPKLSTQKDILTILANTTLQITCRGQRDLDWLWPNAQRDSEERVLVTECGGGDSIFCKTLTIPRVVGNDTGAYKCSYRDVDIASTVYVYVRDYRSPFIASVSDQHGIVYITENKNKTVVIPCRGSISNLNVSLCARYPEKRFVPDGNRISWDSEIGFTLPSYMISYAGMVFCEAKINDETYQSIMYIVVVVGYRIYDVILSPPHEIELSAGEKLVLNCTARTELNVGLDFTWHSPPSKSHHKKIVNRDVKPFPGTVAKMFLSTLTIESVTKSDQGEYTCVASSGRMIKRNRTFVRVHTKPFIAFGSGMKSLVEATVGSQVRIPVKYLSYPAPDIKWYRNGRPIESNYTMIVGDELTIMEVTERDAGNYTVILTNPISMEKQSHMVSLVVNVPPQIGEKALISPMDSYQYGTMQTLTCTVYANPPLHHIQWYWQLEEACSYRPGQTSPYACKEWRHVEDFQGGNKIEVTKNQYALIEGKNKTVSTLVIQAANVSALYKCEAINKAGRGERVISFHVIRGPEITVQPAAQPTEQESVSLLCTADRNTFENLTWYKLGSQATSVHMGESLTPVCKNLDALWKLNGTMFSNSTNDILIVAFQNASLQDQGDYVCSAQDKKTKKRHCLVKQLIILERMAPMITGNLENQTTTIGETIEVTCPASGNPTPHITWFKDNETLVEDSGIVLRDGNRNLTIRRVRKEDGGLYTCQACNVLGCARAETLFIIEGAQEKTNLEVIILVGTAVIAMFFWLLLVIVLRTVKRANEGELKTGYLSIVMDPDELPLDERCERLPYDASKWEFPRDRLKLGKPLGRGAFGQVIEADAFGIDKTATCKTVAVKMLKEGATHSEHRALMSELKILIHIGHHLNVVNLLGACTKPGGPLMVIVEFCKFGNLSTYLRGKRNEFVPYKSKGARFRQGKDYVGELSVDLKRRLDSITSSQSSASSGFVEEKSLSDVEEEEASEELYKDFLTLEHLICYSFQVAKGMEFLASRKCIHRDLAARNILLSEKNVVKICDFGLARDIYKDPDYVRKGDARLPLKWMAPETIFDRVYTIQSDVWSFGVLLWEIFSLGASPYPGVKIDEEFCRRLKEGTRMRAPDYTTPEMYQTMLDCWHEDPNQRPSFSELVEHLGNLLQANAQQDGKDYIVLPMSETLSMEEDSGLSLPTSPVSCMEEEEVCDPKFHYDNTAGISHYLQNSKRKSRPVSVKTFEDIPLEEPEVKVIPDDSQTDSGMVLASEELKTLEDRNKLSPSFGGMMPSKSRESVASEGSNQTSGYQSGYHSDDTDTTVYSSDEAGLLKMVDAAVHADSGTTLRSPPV
In assay [4] the target is αvβ3 integrin on human endothelial cells (HUVEC; vessels of human prostate tissue) (human) (UniProt P06756). Nature of the assay: flow cytometry, WOW-1 Fab on HUVEC transfected with dominant negative c-Src.
Assay [5] shares this target. The assay can be described thus: immunohistochemistry of human prostate tissue.
Assay [6] addresses DiYF β3 integrin (αvβ3 with β3 Tyr747Phe and Tyr759Phe) on lung endothelial cells of knock-in mice (mouse) (UniProt P43406). The assay can be described thus: flow cytometry, WOW-1 Fab on DiYF mouse lung EC.
Assay [7] addresses αvβ3 integrin on human endothelial cells (HUVEC; vessels of human prostate tissue) (human) (UniProt P06756). The assay can be described thus: flow cytometry, WOW-1 Fab on HUVEC.
For assay [8], the target named is αvβ3 integrin, wild type, on mouse lung endothelial cells (mouse) (UniProt P43406). Nature of the assay: flow cytometry, WOW-1 Fab on WT mouse lung EC.
Chain of αvβ3 integrin, wild type, on mouse lung endothelial cells (mouse) (P43406 31-1044, chain 1 of 2): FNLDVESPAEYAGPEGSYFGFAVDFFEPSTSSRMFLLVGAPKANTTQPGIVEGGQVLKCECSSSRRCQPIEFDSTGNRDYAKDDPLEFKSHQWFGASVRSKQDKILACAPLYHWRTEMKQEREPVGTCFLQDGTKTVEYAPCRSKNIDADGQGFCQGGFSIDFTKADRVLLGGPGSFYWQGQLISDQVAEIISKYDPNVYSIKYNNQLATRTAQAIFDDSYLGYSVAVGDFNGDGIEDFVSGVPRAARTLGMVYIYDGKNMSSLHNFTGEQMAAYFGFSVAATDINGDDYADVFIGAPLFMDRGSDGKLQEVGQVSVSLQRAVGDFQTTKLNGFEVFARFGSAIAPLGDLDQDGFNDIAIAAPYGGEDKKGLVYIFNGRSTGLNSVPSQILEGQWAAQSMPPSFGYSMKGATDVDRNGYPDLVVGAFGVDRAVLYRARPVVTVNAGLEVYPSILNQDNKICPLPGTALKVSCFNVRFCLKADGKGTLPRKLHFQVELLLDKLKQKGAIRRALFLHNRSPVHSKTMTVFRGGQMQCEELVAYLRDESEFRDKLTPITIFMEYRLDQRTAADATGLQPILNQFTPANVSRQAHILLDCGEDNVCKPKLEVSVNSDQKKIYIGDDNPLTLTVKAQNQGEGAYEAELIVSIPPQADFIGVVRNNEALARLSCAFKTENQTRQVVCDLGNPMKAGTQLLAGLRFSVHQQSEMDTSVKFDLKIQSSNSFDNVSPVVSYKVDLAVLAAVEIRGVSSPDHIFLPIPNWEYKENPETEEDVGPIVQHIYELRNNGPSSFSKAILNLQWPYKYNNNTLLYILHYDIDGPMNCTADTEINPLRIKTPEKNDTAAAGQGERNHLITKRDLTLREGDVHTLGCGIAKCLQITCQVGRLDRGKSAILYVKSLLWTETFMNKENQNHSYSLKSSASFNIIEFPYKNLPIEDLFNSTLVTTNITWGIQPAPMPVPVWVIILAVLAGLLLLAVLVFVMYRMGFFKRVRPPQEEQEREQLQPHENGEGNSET
Chain of αvβ3 integrin, wild type, on mouse lung endothelial cells (mouse) (O54890 26-787, chain 2 of 2, further chain): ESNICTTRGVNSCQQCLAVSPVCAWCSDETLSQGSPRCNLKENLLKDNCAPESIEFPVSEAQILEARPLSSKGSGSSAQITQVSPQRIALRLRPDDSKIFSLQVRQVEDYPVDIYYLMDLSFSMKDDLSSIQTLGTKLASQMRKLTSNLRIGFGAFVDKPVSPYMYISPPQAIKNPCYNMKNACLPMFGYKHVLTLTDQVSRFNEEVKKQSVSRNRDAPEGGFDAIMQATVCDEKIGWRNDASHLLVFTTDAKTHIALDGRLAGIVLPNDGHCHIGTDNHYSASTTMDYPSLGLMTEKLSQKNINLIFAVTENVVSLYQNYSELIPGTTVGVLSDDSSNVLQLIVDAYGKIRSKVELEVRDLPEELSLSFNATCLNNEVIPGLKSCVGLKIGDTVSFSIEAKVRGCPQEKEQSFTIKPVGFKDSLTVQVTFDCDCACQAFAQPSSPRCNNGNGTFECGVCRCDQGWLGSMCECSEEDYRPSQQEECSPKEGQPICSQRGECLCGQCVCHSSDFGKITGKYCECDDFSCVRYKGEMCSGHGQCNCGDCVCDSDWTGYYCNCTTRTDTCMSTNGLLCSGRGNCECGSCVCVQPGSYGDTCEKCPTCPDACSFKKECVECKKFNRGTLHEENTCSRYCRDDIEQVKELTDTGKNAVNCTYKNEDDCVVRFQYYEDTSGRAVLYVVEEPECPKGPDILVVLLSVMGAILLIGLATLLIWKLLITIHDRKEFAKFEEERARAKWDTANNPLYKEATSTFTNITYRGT
Assay [9] deals with αvβ3 integrin on human endothelial cells (HUVEC; vessels of human prostate tissue) (human) (UniProt P06756). Nature of the assay: flow cytometry (FACS), WOW-1 Fab on HUVEC.
Assay [10] deals with DiYF β3 integrin (αvβ3 with β3 Tyr747Phe and Tyr759Phe) on lung endothelial cells of knock-in mice (mouse) (UniProt P43406). The assay can be described thus: cell-based or functional assay.
Chain of DiYF β3 integrin (αvβ3 with β3 Tyr747Phe and Tyr759Phe) on lung endothelial cells of knock-in mice (mouse) (P43406 31-1044, chain 1 of 2): as the sequence (P43406 31-1044, chain 1 of 2) above
Chain of DiYF β3 integrin (αvβ3 with β3 Tyr747Phe and Tyr759Phe) on lung endothelial cells of knock-in mice (mouse) (O54890 26-787 Y772F/Y784F, chain 2 of 2, further chain): as the sequence (O54890 26-787, chain 2 of 2, further chain) above, with Y747F, Y759F counted along it

On to FITC-labeled fibrinogen (ligand), for which the fold increase of binding on MnCl2 stimulation was 17 fold in assay [1] and above 40 fold in assay [2]. In addition, the fold increase of binding on VEGF stimulation in [1] was 3 fold; in [2] it was above 6 fold.

As for VEGF-A165 (ligand), in [3], the VEGFR-2 phosphorylation in DiYF EC was 2.5 fold and the VEGFR-2 phosphorylation in WT EC amounted to 6 fold.

As for WOW-1 Fab, in assay [4], the fold reduction of VEGF-triggered αvβ3 activation (WOW-1 binding) by dominant negative c-Src is above 2 fold. This substance registered a fold increase of WOW-1 density, prostate carcinoma against normal prostate tissue in assay [5] of 2.7 fold. The values for the fold increase of binding on MnCl2 stimulation in assay [6] and in assay [8] were 14 fold and 30 fold, respectively. Also, the fold increase of binding on VEGF stimulation in assay [6] came to 3.5 fold; in assay [7] it was 6 fold; in assay [8], 9 fold. The fold increase of binding on VEGF-A165 stimulation in assay [9] worked out at 6 fold.

In [10], vitronectin (ligand) came in with a fold decrease in cell adhesion to vitronectin, DiYF EC against WT EC of 2 fold.
